Paper PMC8015430 (Immunity, 2021)

B1: COVA2-39 (antibody, V domains shown)
VH: QVQLVETGGGLIQPGGSLRLSCAASGFTVSSNYMSWVRQAPGKGLEWVSVIYTGGTTYYADSVKGRFTISRDNSKNTLYLQMNSLRAEDTAVYYCARAHVDTAMVESGAFDIWGQGTRVTVSS
VL: QSALTQPASVSGSPGQSITISCTGTSSDVGSYNLVSWYQQHPGKAPKLMIYEVTKRPSGVSNRFSGSKSGNTASLTISGLQAEDEADYYCCSYAGSSTWVFGGGTKLTVL
notes: IgG; RBD Class 2
B2: COVA1-16 (antibody, V domains shown)
VH: QVQLVQSGAEVKKPGASVKVSCKASGYTFTSYYMHWVRQAPGQGLEWMGIINSSGGSTSYAQKFQGRVTMTRDTSTSTVYMELSSLRSEDTAVYYCARPPRNYYDRSGYYQRAEYFQHWGQGTLVTVSS
VL: DIQLTQSPSSLSASVGDRVTITCQASQDISNYLNWYQQRPGKAPKLLIYDASNLETGVPSRFSGSGSGTDFTFTISSLQPEDIATYYCQQYDNPPLTFGGGTKLEIK
notes: IgG; RBD Class 4

Target: T1, Recombinant Stabilized SARS-CoV-2 Spike (SARS-CoV-2, Wuhan-Hu-1 reference (wave …, UniProt P0DTC2, stabilised))
T1 construct: also called Pre-fusion, stabilized and uncleaved SARS-CoV-2 Spike (pcDNA3.1+)
Assay: ELISA
Settings: both partners purified

Row | Binder | binding result
1 | B1 | binds
2 | B2 | binds
